Reference: patent US20240228660A1 (IP2IPO INNOVATIONS, published 2024)

How the values were obtained:
human full-length VWF [1] = biological target: T1, human full-length VWF (human, UniProt P04275 764-2813); assay: SPR, Biacore T200, antibody captured on Protein A, full-length VWF as analyte, single-cycle kinetics
Method: (§1) Antibodies were captured on Protein A sensor chip. The system was purged using running buffer (10 mM HEPES pH 7.4, 300 mM NaCl, 3 mM EDTA, 0.05% P20) and a series S Protein A chip was docked in the Biacore T200. The surface was conditioned with 10 mM glycine-HCl pH 1.5 regeneration solution (3 injections). Each antibody was diluted to ˜0.8 μg/ml in running buffer to capture ˜350 RU on flow cells 2, 3 and 4 (flow cell 1 used as in-line reference cell). Single-cycle kinetic analysis of human full-length VWF binding to antibodies was performed using the following parameters:

human full-length VWF [2] = biological target: T1, human full-length VWF; assay: SPR Biacore T200, antibody captured on Protein A chip, full-length VWF as analyte, single-cycle kinetics
Method: as §1

| Binder | Kd (human full-length VWF [1]) [nM] | koff (human full-length VWF [1]) [s⁻¹] | kon (human full-length VWF [1]) [M⁻¹ s⁻¹] | Kd (human full-length VWF [2]) [nM] |
| --- | --- | --- | --- | --- |
| 4-H3_H1_L1 (antibody, human IgG1, kappa, humanised, human IgG1 kappa) heavy: not shown light: DYQMTQSPSSLSASVGDRVTITCLASEDIASGISWYQQKPGKAPKLLIYGASNLESGVPSRFSGSGSGTDYTLTISSLQPEDFATYYCLGGYSFSSNGLTFGGGTKVEIKTVAAPSVFIFPPSDEQLKSGTASVVCLLNNFYPREAKVQWKVDNALQSGNSQESVTEQDSKDSTYSLSSTLTLSKADYEKHKVYACEVTHQGLSSPVTKSFNRGEC | 0.0138 | 4.27e-07 | 31000 | < 1 |
| 4-H3_H2_L1 (antibody, human IgG1, kappa, humanised, human IgG1 kappa) heavy: not shown light: DYQMTQSPSSLSASVGDRVTITCLASEDIASGISWYQQKPGKAPKLLIYGASNLESGVPSRFSGSGSGTDYTLTISSLQPEDFATYYCLGGYSFSSNGLTFGGGTKVEIKTVAAPSVFIFPPSDEQLKSGTASVVCLLNNFYPREAKVQWKVDNALQSGNSQESVTEQDSKDSTYSLSSTLTLSKADYEKHKVYACEVTHQGLSSPVTKSFNRGEC | 0.00453 | 1.36e-07 | 29900 | < 1 |
| 4-H3_H4_L1 (antibody, human IgG1, kappa, V domains shown, humanised, human IgG1 kappa) VH: QVQLVESGGGVVQPGRSLRLSCAASGIDLTSNAMNWVRQAPGKGLEWVAGIYGHDTSYYAAWAKGRFTISRDNSKNTLYLQMNSLRAEDTATYFCARGFIYFDIWGQGTLVTVSS VL: DYQMTQSPSSLSASVGDRVTITCLASEDIASGISWYQQKPGKAPKLLIYGASNLESGVPSRFSGSGSGTDYTLTISSLQPEDFATYYCLGGYSFSSNGLTFGGGTKVEIKT | 0.00014 | 6.25e-09 | 44500 | < 1 |
| 4-H3_H3_L0 (antibody, human IgG1, kappa, V domains shown, humanised, human IgG1 kappa) VH: QVQLVESGGGVVQPGRSLRLSCAASGIDLTSNAMNWVRQAPGKGLEWIGGIYGHDTSYYAAWAKGRFTISRDNSKNTVYLQMNSLRAEDTAVYYCARGFIYFDIWGQGTLVTVSS VL: DIQMTQSPSSLSASVGDRVTITCLASEDIASGISWYQQKPGKAPKLLIYGASNLESGVPSRFSGSGSGTDFTLTISSLQPEDFATYYCLGGYSFSSNGLTFGGGTKVEIKT | 0.00192 | 1.45e-07 | 75600 | < 1 |
| 4-H3_H3_L1 (antibody, human IgG1, kappa, V domains shown, humanised, human IgG1 kappa) VH: QVQLVESGGGVVQPGRSLRLSCAASGIDLTSNAMNWVRQAPGKGLEWIGGIYGHDTSYYAAWAKGRFTISRDNSKNTVYLQMNSLRAEDTAVYYCARGFIYFDIWGQGTLVTVSS VL: DYQMTQSPSSLSASVGDRVTITCLASEDIASGISWYQQKPGKAPKLLIYGASNLESGVPSRFSGSGSGTDYTLTISSLQPEDFATYYCLGGYSFSSNGLTFGGGTKVEIKT | 0.00149 | 1.72e-07 | 115000 | < 1 |
| 4-H3_H4_L0 (antibody, human IgG1, kappa, V domains shown, humanised, human IgG1 kappa) VH: QVQLVESGGGVVQPGRSLRLSCAASGIDLTSNAMNWVRQAPGKGLEWVAGIYGHDTSYYAAWAKGRFTISRDNSKNTLYLQMNSLRAEDTATYFCARGFIYFDIWGQGTLVTVSS VL: DIQMTQSPSSLSASVGDRVTITCLASEDIASGISWYQQKPGKAPKLLIYGASNLESGVPSRFSGSGSGTDFTLTISSLQPEDFATYYCLGGYSFSSNGLTFGGGTKVEIKT | 0.0193 | 5.24e-07 | 27100 | < 1 |
| 4-H3_H2_L0 (antibody, human IgG1, kappa, humanised, human IgG1 kappa) heavy: not shown light: DIQMTQSPSSLSASVGDRVTITCLASEDIASGISWYQQKPGKAPKLLIYGASNLESGVPSRFSGSGSGTDFTLTISSLQPEDFATYYCLGGYSFSSNGLTFGGGTKVEIKTVAAPSVFIFPPSDEQLKSGTASVVCLLNNFYPREAKVQWKVDNALQSGNSQESVTEQDSKDSTYSLSSTLTLSKADYEKHKVYACEVTHQGLSSPVTKSFNRGEC | 0.0273 | 9.13e-07 | 33500 | < 1 |
